Legend:
[1] = biological target: microtubules polymerised from porcine brain tubulin (porcine), P02550; test: co-sedimentation
[2] = biological target: porcine brain tubulin dimers (porcine, UniProt P02550 1-451; Q767L7 1-444); test: BLI

Chain of microtubules polymerised from porcine brain tubulin (porcine), P02550 (P02550 whole entry, chain 1 of 2): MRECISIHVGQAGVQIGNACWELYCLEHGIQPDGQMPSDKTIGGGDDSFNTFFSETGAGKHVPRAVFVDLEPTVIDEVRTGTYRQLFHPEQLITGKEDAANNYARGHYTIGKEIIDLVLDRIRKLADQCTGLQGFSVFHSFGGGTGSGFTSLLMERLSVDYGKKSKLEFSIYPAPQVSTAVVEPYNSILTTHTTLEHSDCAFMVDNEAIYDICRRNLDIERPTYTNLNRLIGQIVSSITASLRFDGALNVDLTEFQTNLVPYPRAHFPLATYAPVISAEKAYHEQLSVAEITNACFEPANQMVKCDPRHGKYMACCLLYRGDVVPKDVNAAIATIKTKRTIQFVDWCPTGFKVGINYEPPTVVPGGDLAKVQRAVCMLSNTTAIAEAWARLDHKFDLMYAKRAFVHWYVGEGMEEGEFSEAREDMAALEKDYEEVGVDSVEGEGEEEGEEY
Chain of microtubules polymerised from porcine brain tubulin (porcine), P02550 (P02554 whole entry, chain 2 of 2, further chain): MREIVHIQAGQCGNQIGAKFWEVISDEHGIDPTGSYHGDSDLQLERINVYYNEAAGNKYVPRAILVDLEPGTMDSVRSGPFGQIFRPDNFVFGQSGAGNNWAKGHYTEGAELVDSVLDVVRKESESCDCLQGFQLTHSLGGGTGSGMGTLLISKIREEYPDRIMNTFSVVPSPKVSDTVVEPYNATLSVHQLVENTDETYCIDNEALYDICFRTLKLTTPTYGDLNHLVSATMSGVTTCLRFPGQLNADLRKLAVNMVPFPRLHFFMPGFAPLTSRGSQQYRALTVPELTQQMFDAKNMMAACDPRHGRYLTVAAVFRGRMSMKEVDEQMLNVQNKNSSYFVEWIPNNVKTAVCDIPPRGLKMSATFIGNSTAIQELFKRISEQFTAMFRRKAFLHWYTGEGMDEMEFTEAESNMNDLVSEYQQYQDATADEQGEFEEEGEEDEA

B1: Abl2Δ688-790-eGFP, Q4JIM5 74-1182 (natural protein)
chain: EVLHRPFGCDAESQALNEAIRWSSKENLLGATESDPNLFVALYDFVASGDNTLSITKGEKLRVLGYNQNGEWSEVRSKNGQGWVPSNYITPVNSLEKHSWYHGPVSRSAAEYLLSSLINGSFLVRESESSPGQLSISLRYEGRVYHYRINTTTDSKVYVTAESRFSTLAELVHHHSTVADGLVTTLHYPAPKCNKPTVYGVSPIHDKWEMERTDITMKHKLGGGQYGEVYVGVWKKYSLTVAVKTFKEDTMEVEEFLKEAAVMKEIKHPNLVQLLGVCTLEPPFYIVTEYMPYGNLLDYLRECSREEVTAVVLLYMATQISSAMEYLEKKNFIHRDLAARNCLVGENHVVKVADFGLSRLMTGDTYTAHAGAKFPIKWTAPESLAYNTFSIKSDVWAFGVLLWEIATYGMSPYPGIDLSQVYDLLEKGYRMEQPEGCPPKVYELMRACWKWSPADRPSFAETHQAFETMFHDSSISEEVAEELGRTASSSSVVPYLPRLPLLPSKTRTLRKQGENKENLDGGLDAAESLASSSAPAGFIRSTQASSGSPALPRKQRDKSPSSLLEDAKETCFTRDRKGGFFSSFMKKRNAPTPPKRSSSFREMENQPHKKYELTSGLPEQDRMAMTLPRNCQRSKLQLERTVSTSSQPEENVDRANDMLPKKSEEGAAPARERPKAKLLPRGATALPLRAPDPAITESDSPGVGVAGVAAAPKGKERNGGTRLGVAGVPEDGEQLGWSSPAKAVAVLPTTHNHKVPVLISPTLKHTPADVQLIGTDSQGNKFKLLSEHQVTSSGDKDRPRRVKPKCAPPPPPVMRLLQHPSTCSDPEEEPTAPPAGQHTPETQEGGKKAAPGPVPSSGKPGRPVMPPPQVPLPTSSISPAKMANGTAGTKVALRKTKQAAEKISADKISKEALLECADLLSSAITEPVPNSQLVDTGHQLLDYCSGYVDSIPQTRNKFAFREAVSKLELSLQELQVSSTAAGVPGTNPVLNNLLSCVQEISDVVQR
- Kd [1]: 400 nM

B2: 6XHis-1024-1090 (Abl2-1024-1090, site II) (domain or fragment, murine, UniProt Q4JIM5 1024-1090, looked up)
chain: KAAPGPVPSSGKPGRPVMPPPQVPLPTSSISPAKMANGTAGTKVALRKTKQAAEKISADKISKEALL
- Kd [2]: 252 ± 123 nM

B3: 6XHis-557-C (Abl2-557-1182, C-terminal half) (domain or fragment, murine, UniProt Q4JIM5 557-1182, looked up)
chain: GRTASSSSVVPYLPRLPLLPSKTRTLRKQGENKENLDGGLDAAESLASSSAPAGFIRSTQASSGSPALPRKQRDKSPSSLLEDAKETCFTRDRKGGFFSSFMKKRNAPTPPKRSSSFREMENQPHKKYELTGNFSPVASLQNADGFSVAPSQQEPNLVPAKCYGGSFAQRNLCADDDSGGGGGSGTAGGGWSGITGFFTPRLIKKTLGLRAGKPTASDDTSKPFPRSNSTSSMSSGLPEQDRMAMTLPRNCQRSKLQLERTVSTSSQPEENVDRANDMLPKKSEEGAAPARERPKAKLLPRGATALPLRAPDPAITESDSPGVGVAGVAAAPKGKERNGGTRLGVAGVPEDGEQLGWSSPAKAVAVLPTTHNHKVPVLISPTLKHTPADVQLIGTDSQGNKFKLLSEHQVTSSGDKDRPRRVKPKCAPPPPPVMRLLQHPSTCSDPEEEPTAPPAGQHTPETQEGGKKAAPGPVPSSGKPGRPVMPPPQVPLPTSSISPAKMANGTAGTKVALRKTKQAAEKISADKISKEALLECADLLSSAITEPVPNSQLVDTGHQLLDYCSGYVDSIPQTRNKFAFREAVSKLELSLQELQVSSTAAGVPGTNPVLNNLLSCVQEISDVVQR
- Kd [2]: 17 ± 8 nM

B4: 6XHis-688-924 (Abl2-688-924, site I) (domain or fragment, murine, UniProt Q4JIM5 688-924, looked up)
chain: GNFSPVASLQNADGFSVAPSQQEPNLVPAKCYGGSFAQRNLCADDDSGGGGGSGTAGGGWSGITGFFTPRLIKKTLGLRAGKPTASDDTSKPFPRSNSTSSMSSGLPEQDRMAMTLPRNCQRSKLQLERTVSTSSQPEENVDRANDMLPKKSEEGAAPARERPKAKLLPRGATALPLRAPDPAITESDSPGVGVAGVAAAPKGKERNGGTRLGVAGVPEDGEQLGWSSPAKAVAVLP
- Kd [2]: 118 ± 39 nM

B5: Abl2-eGFP, Q4JIM5 74-1182 (natural protein)
chain: EVLHRPFGCDAESQALNEAIRWSSKENLLGATESDPNLFVALYDFVASGDNTLSITKGEKLRVLGYNQNGEWSEVRSKNGQGWVPSNYITPVNSLEKHSWYHGPVSRSAAEYLLSSLINGSFLVRESESSPGQLSISLRYEGRVYHYRINTTTDSKVYVTAESRFSTLAELVHHHSTVADGLVTTLHYPAPKCNKPTVYGVSPIHDKWEMERTDITMKHKLGGGQYGEVYVGVWKKYSLTVAVKTFKEDTMEVEEFLKEAAVMKEIKHPNLVQLLGVCTLEPPFYIVTEYMPYGNLLDYLRECSREEVTAVVLLYMATQISSAMEYLEKKNFIHRDLAARNCLVGENHVVKVADFGLSRLMTGDTYTAHAGAKFPIKWTAPESLAYNTFSIKSDVWAFGVLLWEIATYGMSPYPGIDLSQVYDLLEKGYRMEQPEGCPPKVYELMRACWKWSPADRPSFAETHQAFETMFHDSSISEEVAEELGRTASSSSVVPYLPRLPLLPSKTRTLRKQGENKENLDGGLDAAESLASSSAPAGFIRSTQASSGSPALPRKQRDKSPSSLLEDAKETCFTRDRKGGFFSSFMKKRNAPTPPKRSSSFREMENQPHKKYELTGNFSPVASLQNADGFSVAPSQQEPNLVPAKCYGGSFAQRNLCADDDSGGGGGSGTAGGGWSGITGFFTPRLIKKTLGLRAGKPTASDDTSKPFPRSNSTSSMSSGLPEQDRMAMTLPRNCQRSKLQLERTVSTSSQPEENVDRANDMLPKKSEEGAAPARERPKAKLLPRGATALPLRAPDPAITESDSPGVGVAGVAAAPKGKERNGGTRLGVAGVPEDGEQLGWSSPAKAVAVLPTTHNHKVPVLISPTLKHTPADVQLIGTDSQGNKFKLLSEHQVTSSGDKDRPRRVKPKCAPPPPPVMRLLQHPSTCSDPEEEPTAPPAGQHTPETQEGGKKAAPGPVPSSGKPGRPVMPPPQVPLPTSSISPAKMANGTAGTKVALRKTKQAAEKISADKISKEALLECADLLSSAITEPVPNSQLVDTGHQLLDYCSGYVDSIPQTRNKFAFREAVSKLELSLQELQVSSTAAGVPGTNPVLNNLLSCVQEISDVVQR
- Kd [1]: 320 nM

— PMC10877310 (Current biology : CB, 2023)
